From the Human Domainome abundance scans (Beltran et al. 2025)
± gives the uncertainty stated by the source.

B1: Zinc finger homeobox protein 3, residues 2643 to 2698; numbered along this chain, Q15911 (parent)
chain: RLRTTITPEQLEILYQKYLLDSNPTRKMLDHIAHEVGLKKRVVQVWFQNTRARERK

Variants of: B1
Assay: abundance fitness (aPCA) (normalised: wild type 0, dead -1); higher = more abundant; growth selection in yeast, the domain comes from the species named
Conditions: Homo sapiens
For H34K, the abundance fitness was 0.213 ± 0.16. For H34Y, the abundance fitness was -0.012 ± 0.12. Variant R55Q has an abundance fitness of 0.216 ± 0.18. R55C showed an abundance fitness of 0.263 ± 0.099. For R55M, the abundance fitness was 0.483 ± 0.21. R55E gave an abundance fitness of 0.255 ± 0.13. With R55T the abundance fitness was 0.479 ± 0.14. Variant R55S has an abundance fitness of 0.347 ± 0.094. In the case of R55H, the abundance fitness is reported as 0.001 ± 0.25. For R55N, the abundance fitness was 0.462 ± 0.17. Variant R55W has an abundance fitness of 0.017 ± 0.1. Work on D21Q yielded an abundance fitness of -0.255 ± 0.17. Work on D21R yielded an abundance fitness of -0.803 ± 0.1. Variant D21F has an abundance fitness of -0.373 ± 0.23. D21K showed an abundance fitness of -0.924 ± 0.2. With K56N the abundance fitness was -0.07 ± 0.21. Work on K56V yielded an abundance fitness of -0.073 ± 0.18. With K56G the abundance fitness was 0.001 ± 0.15. With K56M the abundance fitness was -0.204 ± 0.4. Variant Q48C has an abundance fitness of -0.189 ± 0.14. Q48V gave an abundance fitness of -0.147 ± 0.1. With Q48H the abundance fitness was -0.108 ± 0.2. Work on Q48W yielded an abundance fitness of -0.217 ± 0.091. In the case of Q48R, the abundance fitness is reported as -0.204 ± 0.078. With Q48D the abundance fitness was 0.505 ± 0.2. With Q48A the abundance fitness was 0.122 ± 0.12. Q48K showed an abundance fitness of 0.096 ± 0.13. Q48L gave an abundance fitness of -0.268 ± 0.11. In the case of F47M, the abundance fitness is reported as -0.522 ± 0.13. In the case of F47Y, the abundance fitness is reported as -0.388 ± 0.22. F47R showed an abundance fitness of -0.757 ± 0.095. Work on F47P yielded an abundance fitness of -1.04 ± 0.21. With F47N the abundance fitness was -0.835 ± 0.27. F47I gave an abundance fitness of -1.01 ± 0.25. Work on V42E yielded an abundance fitness of 0.387 ± 0.095. Work on V42A yielded an abundance fitness of -0.123 ± 0.095. In the case of V42G, the abundance fitness is reported as -0.43 ± 0.081. V42M gave an abundance fitness of -0.068 ± 0.11. Work on V42S yielded an abundance fitness of -0.327 ± 0.092. Variant V42H has an abundance fitness of -0.288 ± 0.17. Variant V42T has an abundance fitness of 0.037 ± 0.11. Variant T7M has an abundance fitness of -0.228 ± 0.15. T7V showed an abundance fitness of -0.688 ± 0.1. With L19I the abundance fitness was -0.583 ± 0.17. In the case of L19W, the abundance fitness is reported as -0.365 ± 0.11. In the case of L19S, the abundance fitness is reported as -0.154 ± 0.092. Variant L19G has an abundance fitness of -0.175 ± 0.078. Work on G37W yielded an abundance fitness of -0.92 ± 0.11. Variant G37N has an abundance fitness of -0.306 ± 0.13. With G37T the abundance fitness was -0.825 ± 0.13. Work on G37F yielded an abundance fitness of -0.55 ± 0.15. Work on G37P yielded an abundance fitness of -0.637 ± 0.13. G37K gave an abundance fitness of -0.007 ± 0.12. G37C gave an abundance fitness of -0.297 ± 0.087. Work on R53E yielded an abundance fitness of 0.288 ± 0.11. Variant R53C has an abundance fitness of 0.052 ± 0.12. R53L gave an abundance fitness of -0.006 ± 0.08. R53P showed an abundance fitness of -0.266 ± 0.14. Variant R53M has an abundance fitness of -0.132 ± 0.098. Variant A33S has an abundance fitness of -0.06 ± 0.074. A33P gave an abundance fitness of -0.746 ± 0.085. Variant A33D has an abundance fitness of -0.866 ± 0.11. A33K showed an abundance fitness of -0.804 ± 0.14. A33Q showed an abundance fitness of -0.845 ± 0.14. A33T gave an abundance fitness of -0.43 ± 0.08. For A33M, the abundance fitness was -0.832 ± 0.14. Work on A33C yielded an abundance fitness of -0.127 ± 0.1. In the case of A33Y, the abundance fitness is reported as -0.822 ± 0.11. Work on A52C yielded an abundance fitness of -0.209 ± 0.12. Variant A52S has an abundance fitness of -0.021 ± 0.083. In the case of A52I, the abundance fitness is reported as -0.639 ± 0.18. Work on A52D yielded an abundance fitness of 0.244 ± 0.12. For E12A, the abundance fitness was -0.07 ± 0.082. With E12W the abundance fitness was -0.749 ± 0.12. For E12Q, the abundance fitness was -0.049 ± 0.13. E12G showed an abundance fitness of -0.228 ± 0.077. Variant E12L has an abundance fitness of -0.188 ± 0.086. For E54Y, the abundance fitness was -0.438 ± 0.11. For E54I, the abundance fitness was -0.197 ± 0.1. E54V gave an abundance fitness of -0.39 ± 0.079. For E54W, the abundance fitness was -0.512 ± 0.12. Variant E54N has an abundance fitness of -0.531 ± 0.1. Variant E54T has an abundance fitness of -0.361 ± 0.077. In the case of E54R, the abundance fitness is reported as -0.701 ± 0.09. For K40R, the abundance fitness was -0.064 ± 0.082. With K40G the abundance fitness was 0.04 ± 0.079. In the case of K40S, the abundance fitness is reported as 0.237 ± 0.092. With K40V the abundance fitness was 0.161 ± 0.079. In the case of K40D, the abundance fitness is reported as 0.006 ± 0.16. With E9W the abundance fitness was -0.516 ± 0.11. With E9I the abundance fitness was -0.241 ± 0.078. Work on E9S yielded an abundance fitness of -0.267 ± 0.071. H31N showed an abundance fitness of 0.315 ± 0.16. H31F gave an abundance fitness of -0.068 ± 0.14. H31I showed an abundance fitness of 0.009 ± 0.16. For H31C, the abundance fitness was 0.096 ± 0.13. With H31E the abundance fitness was 0.265 ± 0.1. In the case of H31P, the abundance fitness is reported as -0.836 ± 0.19. For I13G, the abundance fitness was -0.24 ± 0.077. For I13W, the abundance fitness was -0.172 ± 0.091. In the case of I13V, the abundance fitness is reported as 0.057 ± 0.088. Variant I13N has an abundance fitness of -0.287 ± 0.16. L14Q showed an abundance fitness of -0.895 ± 0.14. L14P gave an abundance fitness of -0.879 ± 0.24. In the case of L14C, the abundance fitness is reported as -0.886 ± 0.18. For L14H, the abundance fitness was -0.793 ± 0.26. L14E showed an abundance fitness of -0.791 ± 0.12. Variant L14S has an abundance fitness of -0.763 ± 0.1. R41G showed an abundance fitness of 0.353 ± 0.079. Variant R41T has an abundance fitness of 0.514 ± 0.15. For R41F, the abundance fitness was -0.203 ± 0.2. In the case of R41E, the abundance fitness is reported as 0.475 ± 0.12. Variant R41A has an abundance fitness of 0.159 ± 0.11. Variant R41S has an abundance fitness of 0.411 ± 0.1. Variant R41N has an abundance fitness of 0.2 ± 0.36. In the case of R41C, the abundance fitness is reported as 0.256 ± 0.12. Work on T5W yielded an abundance fitness of -0.192 ± 0.15. T5A showed an abundance fitness of 0.132 ± 0.097. Variant T5I has an abundance fitness of -0.165 ± 0.14. In the case of T5S, the abundance fitness is reported as -0.25 ± 0.12. With T5R the abundance fitness was -0.498 ± 0.096. Variant T5E has an abundance fitness of 0.445 ± 0.15. T5D gave an abundance fitness of 0.075 ± 0.14. For T5F, the abundance fitness was -0.358 ± 0.2. T5H showed an abundance fitness of -0.784 ± 0.31. With T5K the abundance fitness was -0.593 ± 0.23. In the case of T5V, the abundance fitness is reported as -0.172 ± 0.089. For R51Q, the abundance fitness was 0.229 ± 0.12. Variant R51M has an abundance fitness of 0.098 ± 0.11. For R51L, the abundance fitness was 0.056 ± 0.1. For R51W, the abundance fitness was -0.135 ± 0.11. Variant R51T has an abundance fitness of -0.305 ± 0.16. For W46E, the abundance fitness was -1.08 ± 0.18. Work on W46A yielded an abundance fitness of -0.482 ± 0.12. With Y18I the abundance fitness was -0.62 ± 0.23. With Y18Q the abundance fitness was -0.698 ± 0.2. Y18H gave an abundance fitness of -1.03 ± 0.35. With Y18N the abundance fitness was -0.705 ± 0.32. For P24H, the abundance fitness was -0.687 ± 0.19. With P24G the abundance fitness was -0.857 ± 0.088. P24E gave an abundance fitness of -0.78 ± 0.14. With T25V the abundance fitness was -0.349 ± 0.082. T25W showed an abundance fitness of -0.951 ± 0.13. Work on T25I yielded an abundance fitness of -0.502 ± 0.14. In the case of I32C, the abundance fitness is reported as -0.749 ± 0.17. Work on I32E yielded an abundance fitness of -0.9 ± 0.13. I32A gave an abundance fitness of -0.886 ± 0.1. In the case of I32V, the abundance fitness is reported as -0.078 ± 0.084. For I32D, the abundance fitness was -1.02 ± 0.18. In the case of I32F, the abundance fitness is reported as -0.108 ± 0.14. I32Y gave an abundance fitness of -0.378 ± 0.2. For R1I, the abundance fitness was -0.063 ± 0.41. Variant R1M has an abundance fitness of 0.23 ± 0.35. Variant R1V has an abundance fitness of 0.297 ± 0.19. In the case of R1G, the abundance fitness is reported as 0.258 ± 0.11. Q44M gave an abundance fitness of -0.164 ± 0.1. Variant Q44K has an abundance fitness of -0.236 ± 0.12. Q44H showed an abundance fitness of -0.038 ± 0.15. Work on Q44T yielded an abundance fitness of -0.209 ± 0.098. Q44I gave an abundance fitness of -0.286 ± 0.13.
